# Source: article PMC3600519, “Acute toxicity of vipoxin and its components: is the acidic component an “inhibitor” of PLA2 toxicity?” (Interdisciplinary Toxicology, 2012)
# T1: vipoxin basic and toxic phospholipase A2 subunit (Vipera ammodytes meridionalis, UniProt P14420 1-122)
# T1 sequence: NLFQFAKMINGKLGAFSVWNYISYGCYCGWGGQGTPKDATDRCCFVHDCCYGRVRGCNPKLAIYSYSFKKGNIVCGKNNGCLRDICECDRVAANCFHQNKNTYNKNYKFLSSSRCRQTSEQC
# B1: vipoxin's acidic component (natural protein)
# chain: NLFQFGDMILQKTGKEAVHSYAIYGCYCGWGGQGRAQDATDRCCFAQDCCYGRVNDCNPKTATYTYSFENGDIVCGDNDLCLRAVCECDRAAAICLGENVNTYDKNYEYYSISHCTEESEQC
# Target: T1, vipoxin basic and toxic phospholipase …
# Assay: cell-based or functional assay
binder,measurement,value
B1,"residual PLA2 enzyme activity (NOBA substrate) of reconstituted complex PLA2 + VAC (1:1 molar ratio), pre-incubation 1 min to 24 h (100, 120, 115, 114, 114, 113, 108, 78 %)",120%
